Data: the nanobody polyreactivity screen of Harvey et al. (2022)

Test: yeast display, Sf9 membrane polyspecificity reagent, FACS + sequencing; frameworks hold sequencing errors
In short: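 In a synthetic yeast display library (Saccharomyces cerevisiae BJ5465), nanobody expression was induced with galactose for 36–48 hours. FACS gates were set low and high (top ~1%) using anti-HA fluorescence for expression and streptavidin fluorescence for binding of the Sf9 membrane reagent. Each polyreactivity label is drawn from the gate of origin.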

QVQLVESGGGLVQAGGSLRLSCAASGSTFGWYTMAWYRQAPGKERELVAAITSRGTRTSYADSVKGRFTISRDNAKNTVYLQMNSLKPEETAVYYCAARVFRGLGEYYWGQGTQVTVSS
polyreactivity (PSR sort gate): high polyreactivity

QVQLVESGGGLVQAGVSLRLRCAASASILSYYAMGWYRHAPGKERELVAAISRSGCTTYYADSVKGRFTISRDYAKNTVYLQMNSLIPEDTAVYYCAAVDRYYAYRDYYYWGQGTQVTVSS
polyreactivity (PSR sort gate): high polyreactivity

QVQHVESGGGLVQAGGSLRLSCAATGRIFTAYYAMGWYRQAPGKERELVASISSSGTSTYADSVKGRFTISRDNAKNTVYLQMNSLKPDDTAVYYCATRKLRTRRYDYGYWGQGTQVTVSS
polyreactivity (PSR sort gate): low polyreactivity

QFQLVESGGGLVQAGGSLRLSCAASGSIFTYNVMGWYRQAPRKERELVAAISDGDGSTYADSVKGRFTISRDNAKNTVYLQMNSLKPEDTAVYYCAAVDGRYLGGFNSRDGDWGQGTQVTVSS
polyreactivity (PSR sort gate): low polyreactivity

QVHLVESGGGLVQAGGSLRISCAASGSIFFPYAMGGYRQAPGKERELVAAISYSGTSTYYAASVKGRFTISRDNAKNTVYLQMNSLKPVDTAVYYCAAYSRYYASYDYWGQGTQVTVSS
polyreactivity (PSR sort gate): high polyreactivity

QVQLVESGGGLVQAGGSLRLSCAASGSNFSFNGLGWYRQAPGKERGLVAAITTSGGSTYYADSVKGRFTISRDNAKNTVYLQMNSLTPEDTAVYYCAAVGPDNSLYEPMDYWGLGTQVTVSS
polyreactivity (PSR sort gate): low polyreactivity

QVQLVESGGGLVQAGGSLRLSCAASGSTLSEYAMGWYRQAPGKERELVAAISWSGGSTYYADSVKGRFTISRDNAKNTVYLQMNSLKPEDTAVYDCAAKRYSSKRGLDYWGQGTHVTVSS
polyreactivity (PSR sort gate): high polyreactivity

QVQLVESGGGLVQAGGSLRLSCAASGRILSPYAMGWYRQAPGKERELVAAITSGGRTHYADSVKGRFTISRDNAKNTVYLQMNSLKRVDTAVYYCAARVRSGWWVRDDYWGQGTQVTVSS
polyreactivity (PSR sort gate): high polyreactivity

QVQLVESGGGLVQAGGSLRLSCAASGFTFWYYAMGWYRQAPGKERELVATITSGDSTKYADSVKGRFTISRDNAKNTVYLQMNSLKPEDTAVYYCAAEKVLPFIGYDYWGQGTQVTVSS
polyreactivity (PSR sort gate): low polyreactivity

QVQLVESGGGLVQAGGSLRLSCAASGSIFSYYAMGWYRQAPGKERELVAAISKRGASTYYADSVKGRFTISRDNAKNTVYLQMNSLKPEDTAVYYCAAYRQGSAYDYWGQGTQVTVSS
polyreactivity (PSR sort gate): high polyreactivity

QVQLVESGGGLVQAGGSLRLSCAASGRIFLRNAMGWYRPAPGKERELVAGISSIGGITYYADSVKGRFTISRDNAKNTVYLQMNILKPEDTAVYYCAKGLYLHTSGHGPYDYWGQGTQVTVSS
polyreactivity (PSR sort gate): low polyreactivity

QVQLVESGGGLVQAGGSLRLICAASGLIFYKYAMGWYRQAPGKERELVAAITSGGSTNYADSVKGRFTISRDNAKNSVYLQMNSLKPEVTAVYYCNADYNHYLVVRWWYPPVDYWGQGSQVTVSS
polyreactivity (PSR sort gate): low polyreactivity

QVQLVESGGGLVQAGGSLRLSCAAYGSTFKRNAMGCYRQAPGKEREFVAAITWSGGSTYYADSVKGRFTISRDNAKNTVYLQMNSLKPEDTAVYYCNADRFSSRHSYDYWGQGTQVTVSS
polyreactivity (PSR sort gate): low polyreactivity

QVQLVESGGGLVQAGGSLRLSCAASGSTFPYYVMGWYRQAPGKERELVAAIDESGDRTYYADSVKGRFTISRDNAKNTVYLQMNSLKPEDTAVYYCAAEGWYEYWYDYWGQGTQVTVSS
polyreactivity (PSR sort gate): high polyreactivity

QVHLVESGGGLVQAGGSLRLSCAASGFLFDVYAMGWYRQAPGKERELVAAISRSGGSTYYADSVKGRFTISRDNAKNTVYLQMNSLKPEDTAVYYCATDLLNNVDYDYWGQGTQVTVSS
polyreactivity (PSR sort gate): low polyreactivity

QVQLVESGGGLVQAGGSLRLSCAASGFTFVSNDMGWYRQEPGKERELVAAISQGGGSTYYADSVKGRFTISRDNAKNTVYLQINSLKPEDTAVYYCAAEDVYFGYDYWGQGTQVTVSS
polyreactivity (PSR sort gate): low polyreactivity

QVQLVESGGGLVQAGGSLRLSCAASGSTFGYYAMGWYRQAPGKERELVAAITWSGGSTSYADSVKGRFTISRENAKNSVYLQMNSLKPEDTAVYYCAAQYKKGRGAKRTYYGGWLEYCGQGTQVTVSS
polyreactivity (PSR sort gate): low polyreactivity

QVQLVESGGGLVQAGGSLRLSCAASGLTFVRYAMGWYRQAPGKERELVAAISARGGSTYYADSVKGRFTISRDNAKNTVYLQMNSLKPEDTAVYYCNTVRVHGFPIDRIYDYWGQGTQVTVSS
polyreactivity (PSR sort gate): high polyreactivity

QVQLVESGGGLVQAGGSLRISCAASGFILTGYTMGWYRQAPGKERELVAAISWSGARTYYADSVKGRFTISRDNAMNTVYLQMNSLKPEDTAVYYCARDYYRPTQRYDYWGQGTQVTVSS
polyreactivity (PSR sort gate): high polyreactivity

QVQLVESGGGLVQAGGSLRLSCAGSGRTFRTYTRGWYRQAPGKERELVAAISWSGSSTYYADSVKGRFTISRDNAKNTVYLQMNSLKPEDTAVYYCAARGLYDYGYWGQGTQVTVSS
polyreactivity (PSR sort gate): high polyreactivity

QVQLVESGGGLVQAGGSLRLSCAASGSIFARYAMGWYRQAPGKERELVAAIDQSAGSTYYADSVKGRFTISRDNAKNTVYLQMNSLKPEDTAVYYCNADYWYWWVITYVGPGLGYWGQGTQVTVSS
polyreactivity (PSR sort gate): high polyreactivity

QVQLVESGGGLVQAGGSLRLSCAASGLIFRVNAMGWYRQAPGKERELVADINSGGGTSYADSVKGRFTISRDNAKNTVYLQMNSLKPEDTAVYYCAAAWWPYSYPTYYSQYDYWGQGTQVTVSS
polyreactivity (PSR sort gate): low polyreactivity

QVQLVESGGGLVQAGRSLRLSCAASGSILGFYAMGWYRHAPGKERELVAAIRWRAGSTYYADSVKGRFTISRDNAKNTVNLQMNSLKPEDTAVYYCAAPTKYRSRRYYWGQGTQVTVSS
polyreactivity (PSR sort gate): high polyreactivity

QVQLVESGGGLVQAGGSLRLSCAASGRIFHANAMGWYRQAPGKERELVAGISRNGGRTYYADSVKGRFTISRDNAKNTVYLQMNSLKPEDTAVYYCAARVWGSSQYYYWGQGTQVTVSS
polyreactivity (PSR sort gate): high polyreactivity

QVQLVESGGGLVQAGGSLRLSCAASGITFYGYAMGWYRQAPGKERELVARISSGGTTKYADSVKGRFTISRDNAKNTVYLQMNSLKPEDTAVYYCAVGGSWWYYGFYYWGQATQVTVSS
polyreactivity (PSR sort gate): high polyreactivity

QVQLVESGGGLVQAGGSLRLSCAASGSIFVGYTMGWYRQAPGKETELVADITYNGGTTYYADSVKGRFTISRDNAKNTVYLQMNSLKPEETAVYYCAADYYYACFPVYYWGQGTQVTVSS
polyreactivity (PSR sort gate): high polyreactivity

QVQLVESGGGLVQAVGSLRLSCAASGRTFYSYAMGWYRQAPGKERELVAAISRTGGSTYYADSVKGRFTISLDNAKNTVYLQMNSLKPEDTAVYYCAAVYRRNEFGYWGQGTQVTVSS
polyreactivity (PSR sort gate): high polyreactivity

QVQLVESGGGLVQAGGSLRLSCAASGLTIFVYAMGWSRQAPGKERELVAAISDSGGSTYYADSVKGRFTISRDNAKNTVYLQMNSLKPEDTAVYYCAADYRGIYSGIWGDYWGQGTQVTVSS
polyreactivity (PSR sort gate): low polyreactivity

QVQLVESGGGLVQAGGSLRLSCAASGRIFDSYTMGWYRQAPGKERELVAAISRGGGSTYYADSVKGRFTISRDNAKNTVYLQMNSLKPEDTAVYYCAASSYLNSRFKFDYWGQGTQVTVSS
polyreactivity (PSR sort gate): low polyreactivity

QVQIVESGGGLVQAGGSLRLSCAASGRTLKFNTMGWYRQAPGKERELVAAISGSGGSTYYADSVKGRFTISRDNAKNTVYLQMNSLKPEDTAVYYCAKYGVLRGYGYDYWGQGTQVTVSS
polyreactivity (PSR sort gate): high polyreactivity

QVQLVESGGVLVQAGGSLRLSCAASGITFIGYAMGWYRQAPGKERELVASITSGANTNYADSVKGRFTISRDNAKNTVYLQMNSVKAEDTAVYYCAAPEHGTYANILGEPLDYWGQGTQVTVSS
polyreactivity (PSR sort gate): low polyreactivity

QVQLVESGGGLVQAGGSLRLSCAASGSILQQYTMGWYRPAPGKERELVAAISSSGSSTYYADSVKGRFTISRDNAKNTVYLQMNSLKPEDTAVYYCNADYHDKFYWGQGTQVTVSS
polyreactivity (PSR sort gate): low polyreactivity
